# Source: patent US20160145654
# Molecular target: IL-2-phaP fusion polypeptide on the surface of polymer particles (PHA granules), P04351
# Sequence (P04351 whole entry, looked up, the tested form may be a part): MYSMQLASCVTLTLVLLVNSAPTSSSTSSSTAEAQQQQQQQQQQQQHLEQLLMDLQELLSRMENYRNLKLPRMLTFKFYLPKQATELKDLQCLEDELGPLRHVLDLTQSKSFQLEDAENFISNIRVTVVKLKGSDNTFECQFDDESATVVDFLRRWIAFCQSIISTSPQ
protein,measurement,value
bovine enterokinase (protein) IVGGSDSREGAWPWVVALYFDDQQVCGASLVSRDWLVSAAHCVYGRNMEPSKWKAVLGLHMASNLTSPQIETRLIDQIVINPHYNKRRKNNDIAMMHLEMKVNYTDYIQPICLPEENQVFPPGRICSIAGWGALIYQGSTADVLQEADVPLLSNEKCQQQMPEYNITENMVCAGYEAGGVDSCQGDSGGPLMCQENNRWLLAGVTSFGYQCALPNRPGVYARVPRFTEWIQSFLH,fluorescence of IL-2-phaP particles stained with anti-IL-2-PE after 1 hr incubation with enterokinase (FACS),a smaller shift in fluorescence intensity indicates that a proportion of IL-2 has been cleaved from the particles
same,fluorescence of IL-2-phaP particles stained with anti-IL-2-PE after 16 hours incubation with enterokinase (FACS),"no IL-2 is detectable on the surface of the polymer particles, indicating the IL-2 has been cleaved from the polymer particles"
